One assay concerns the target T1, I-HBD (Homo sapiens, UniProt Q9NP59).
T1 construct: made in house; host or cells: chemical synthesis
Nature of the assay: Effect of NEM on 125I-hepcidin binding to I-HBD. The procedure: FIGS. 3A and 3B illustrate that the dissociation of the hepcidin/HBD complex is accelerated by low temperature. In FIG. 3A ^125I-hepcidin was added to I-HBD and a complex was allowed to form at 37° C. The I-HBD/^125I-hepcidin complex was washed and then incubated with an excess of non-radioactive hepcidin. The samples were then incubated at 37° C. (closed circle) or 4° C. (open circle) for the specified times and the amount of radioactivity remaining bound to the I-HBD was determined. The data are expressed as radioactivity at each time point relative to the amount bound at time zero. In FIG. 3B the ^125I-hepcidin/1-HBD complex was allowed to form at 37° C., the complex was then washed and incubated with the indicated concentration of NEM and the amount of bound radioactivity was determined after a four-hour incubation (closed circles). I-HBD alone was also incubated with the specified concentrations of NEM for 2 hours. The I-HBD beads were washed and then ^125I-hepcidin was added at 37° C. and the amount of bound radioactivity was determined after a four-hour incubation (open circles).

Assay [1] deals with T2, I-HBD (hepcidin binding domain of ferroportin) (Homo sapiens, UniProt Q9NP59).
T2 construct: made in house; host or cells: chemical synthesis
Kind of assay: Competition with 125I-hepcidin for binding to I-HBD beads. The procedure:
(§1) FIGS. 2A-C illustrates that the binding of ^125I-hepcidin to HBD is specific and temperature dependent. In FIG. 2A peptides (HBD, scrambled-HBD or mutant (C326Y HBD) were conjugated to beads and ^125I-hepcidin was added to the bead-immobilized peptides (I-HBD) for 18 hours at 37° C. (black bars) or 4° C. (grey bars). The beads were washed and the amount of ^125I-hepcidin bound to the I-HBD was determined. In FIG. 2B a sub saturating concentration of ^125I-hepcidin (0.6 μg/ml) was incubated with I-HBD for 18 hours at 37° C. in the presence or absence of known concentrations of either hepcidin 25 (Hep 25-open circles) or hepcidin 25 synthesized with a tyrosine substitution at position M21 (Y-Hep 25) and the amount of radioactivity bound to the I-HBD determined. In FIG. 2C sub saturating levels of ^125I-hepcidin were incubated with I-HBD at different temperatures.
The binding of ^125I-hepcidin could be reduced by addition of native non-radioactive hepcidin with an apparent K of approximately 200 nM (FIG. 2B). There was no binding of ^125I-hepcidin to I-HBD at 4° C. and ^125I-hepcidin bound to I-HBD at 37° C. was released when subsequently placed at 4° C. (data not shown).
HBD peptides were immobilized by covalently attaching them to agarose beads. […] The fluid was removed and the radioactivity bound to beads was determined by gamma counting (Perkin/Elmer).

The target of the next assay is T3, Fpn (Homo sapiens, UniProt Q9NP59).
T3 sequence (Q9NP59 1-571): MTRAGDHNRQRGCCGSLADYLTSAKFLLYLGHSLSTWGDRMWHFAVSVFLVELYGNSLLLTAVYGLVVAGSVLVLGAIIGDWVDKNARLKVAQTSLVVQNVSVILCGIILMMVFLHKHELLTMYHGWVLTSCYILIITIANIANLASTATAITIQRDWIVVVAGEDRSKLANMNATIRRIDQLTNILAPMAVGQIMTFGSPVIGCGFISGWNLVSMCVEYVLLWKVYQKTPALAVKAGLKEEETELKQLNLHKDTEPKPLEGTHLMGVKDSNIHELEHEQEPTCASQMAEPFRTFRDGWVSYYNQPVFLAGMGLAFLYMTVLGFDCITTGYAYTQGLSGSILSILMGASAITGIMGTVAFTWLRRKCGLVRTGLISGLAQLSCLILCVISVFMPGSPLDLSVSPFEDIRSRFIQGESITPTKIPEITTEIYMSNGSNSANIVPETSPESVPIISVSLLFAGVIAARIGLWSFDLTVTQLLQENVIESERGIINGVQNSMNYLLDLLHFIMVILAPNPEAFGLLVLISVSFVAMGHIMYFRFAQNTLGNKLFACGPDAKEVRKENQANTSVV
To be noted: reference (7); cited from earlier work.

Another assay concerns the target T4, 125I-hepcidin (Homo sapiens, UniProt P81172, M80Y).
T4 construct: hepcidin 25 synthesized with a tyrosine substitution at position M21 (Y-Hep 25); made in house; host or cells: chemical synthesis
T4 sequence (P81172 60-84 M80Y): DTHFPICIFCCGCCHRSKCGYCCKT
Kind of assay: 125I-hepcidin binding to bead-immobilized peptides. The note with it: 37° C.; listed as HBD peptide containing the human Fpn mutation C326Y. The procedure:
as §1, with “In FIG. 2C sub saturating levels of ^125I-hepcidin were incubated with I-HBD at different temperatures.” left out
FIGS. 3A and 3B illustrate that the dissociation of the hepcidin/HBD complex is accelerated by low temperature. […] (open circle) for the specified times and the amount of radioactivity remaining bound to the I-HBD was determined. The data are expressed as radioactivity at each time point relative to the amount bound at time zero. In FIG. 3B the ^125I-hepcidin/1-HBD complex was allowed to form at 37° C., the complex was then washed and incubated with the indicated concentration of NEM and the amount of bound radioactivity was determined after a four-hour incubation (closed circles). […]

The target in assay [2] is T5, hepcidin (Homo sapiens, UniProt P81172, M80Y).
T5 construct: generates the mature bioactive 25-amino acid form found in plasma and urine; made in house; host or cells: chemical synthesis
T5 sequence (P81172 60-84 M80Y): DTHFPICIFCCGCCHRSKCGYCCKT
Kind of assay: Inhibition of hepcidin-mediated Fpn-GFP internalization in HEK293TFpn-GFP cells by peptides preincubated with hepcidin. The class given is cell-based. The note with it: preincubation at 37° C. The procedure:
(§2) FIGS. 1A-D illustrate inhibition of hepcidin-mediated Fpn internalization by HBD. […] The HBD peptides and hepcidin were mixed at an equal molar ratio for two hours at 37° C. and then added to cells for one or 24 hours. Fpn internalization at one hour was analyzed by epifluorescence (upper panel) and the percentage of cells showing internalized Fpn-GFP at one and 24 hours was quantified (lower panel). The data represent the standard error of the mean from analyzing over 10 fields (20-30 cells) per sample. FIG. 1B illustrates HBD inhibition of Fpn-GFP internalization. Fpn-GFP expressing cells were incubated with hepcidin, hepcidin preincubated with HBD at 37° C. or hepcidin preincubated with HBD at 4° C. Fpn-GFP internalization at one (black bars) and 24 (grey bars) hours was quantified. The percentage of cells with internalized Fpn is shown. FIG. 1C illustrates that ^125I-hepcidin binds to HBD similarly to unlabeled hepcidin. ^125I-hepcidin was preincubated with HBD at 37° C. or 4° C. for one hour and then the mixture added to cells for one hour (black bars) or twenty-four hours (grey bars). The data are expressed as in FIG. 1B. FIG. 1D illustrates the fact that binding of hepcidin to HBD is reversible by low temperature. In the left panel the samples were treated as in FIG. 1C. In the right panel, the sample was incubated at 37° C. and was placed at 4° C. for four hours. The mixture was then incubated with cells at 37° C. and the internalization of Fpn-GFP was determined after one (black bars) or twenty four hours (grey bars).
(§3) Incubation of HEK293TFpn-GFP cells with hepcidin results in the internalization of cell surface Fpn-GFP (2) and FIG. 1A. […] Previously it was determined that hepcidin binding to Fpn was temperature dependent (2).
(§4) HEK293TFpn-GFP, a stable cell line in which Fpn-Green fluorescent protein (GFP) expression is regulated by the ecdysone promoter has been described previously (2).
(§5) Peptides were synthesized at the DNA/Peptide Core Facility, University of Utah, Salt Lake City, Utah. The peptides were synthesized with two arginines added at the amino and carboxyl terminals. […] Microscope analysis was carried out using an Olympus BX51 microscope (Olympus, Tokyo, Japan). Images were acquired using Picture Frame 2.5 software (Olympus America, East Muskogee, Okla.). All experiments were repeated a minimum of 5 times.
(§6) To characterize the interaction of the HBD with hepcidin, hepcidin was labeled at an iodinateable tyrosine to produce ^125I-hepcidin. Previously, it was shown that ^125I-hepcidin bound to Fpn indistinguishably from hepcidin that lacked the iodinateable tyrosine (2). HBD was then conjugated to agarose beads to produce immobilized HBD (I-HBD), which was then preincubated with ^125I-hepcidin at 37° C. prior to addition to Fpn-GFP expressing cells.

The target in assay [3] is T6, hepcidin (Homo sapiens, UniProt P81172).
T6 construct: generates the mature bioactive 25-amino acid form found in plasma and urine; made in house; host or cells: chemical synthesis
T6 sequence (P81172 60-84): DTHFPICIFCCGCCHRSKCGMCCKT
The assay is described as above. The class given is cell-based. To be noted: peptide preincubated with hepcidin at equal molar amounts, 37° C.; HEK293TFpn-GFP cells. The procedure: as §2, §3, §4, §5, §6

The next assay has as its system serum hepcidin. Nature of the assay: Serum hepcidin levels after LPS injection, I-HBD assay. The class given is in vivo. To be noted: LPS injected mice. The procedure:
FIGS. 5A-E illustrate the hepcidin concentrations in mice and human sera. In FIG. 5A, different concentrations of serum were incubated with a known amount of ^125I-hepcidin and I-HBD for 18 hours at 37° C. The beads were washed and radioactivity bound to the beads was determined. A standard curve was determined by incubating known amounts of hepcidin with ^125I-hepcidin and HBD-beads. In FIG. 5B, sera was obtained from wild type mice (C57/Bl6) or from mice that were homozygous for a targeted gene deletion in HFE or homozygous or heterozygous for a targeted gene deletion in the HAMP gene. […] The beads were washed and the amount of radioactivity was determined. Serum hepcidin levels were calculated relative to a standard curve. […] Sera was obtained from the mice 10 hours later and the hepcidin concentration was determined as described in FIG. 5A. In FIG. 5D hepcidin levels were measured in different strains of mice. […] Hepcidin levels were determined as in FIG. 5A. The serum iron (SI), […] (TIBC) and transferrin saturation was calculated as described herein. Each sample was analyzed in triplicate and the error bars represent the standard deviation
HBD peptides were immobilized by covalently attaching them to agarose beads. […] The fluid was removed and the radioactivity bound to beads was determined by gamma counting (Perkin/Elmer). […]

Entries after “also recorded” stand apart in the source; their conditions may differ. No end group written: not given here.

T2 sequence (Q9NP59 with tags, fused parts or gaps limits assumed): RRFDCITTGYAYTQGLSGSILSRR

With `CCN1C(=O)C=CC1=O` [NEM, N-ethylmaleimide], on I-HBD (I-HBD treated with NEM before 125I-hepcidin), the “125I-hepcidin binding activity of I-HBD” value is “loss of ^125I-hepcidin binding activity”. The 125I-hepcidin/I-HBD complex entry on I-HBD (NEM added after complex formed at 37° C.) is given as “the complex was not affected”.
On to “Hep20: hepcidin derivative with the five amino terminal amino acids deleted (ICIFCCGCCHRSKCGMCCKT; not fully specified (N-terminus, C-terminus); ends and bridges not checked)”, for which the “binding to HBD / I-HBD” value in assay [1] was “nor do they bind to HBD; also recorded: does not bind to I-HBD”. Moreover, the “binding to Fpn” value in the assay with Fpn was “do not bind to Fpn”.
As for “HBD Mutant: Fpn peptide containing the C326Y mutation, RR-FDYITTGYAYTQGLSGSILS-RR (SEQ ID NO: 4) (RRFDYITTGYAYTQGLSGSILSRR; HBD Mutant)”, in the assay with 125I-hepcidin, the “125I-hepcidin binding to the peptide” value is recorded as “did not bind ^125I-hepcidin”. The “Fpn-GFP internalization activity of 125I-hepcidin after preincubation with peptide” value with hepcidin [2] is “did not affect”. In addition, in the assay with hepcidin [3], the “hepcidin-mediated internalization of Fpn-GFP” value is listed as “did not prevent hepcidin mediated Fpn-GFP internalization”.
For lipopolysaccharide [LPS], the “hepcidin levels in sera” value with serum hepcidin is “two-fold increase”.
With “HBD Scramble: same amino acid composition as HBD in randomized sequence, RR-ILSLFDAYCTGTQITGSGSY-RR (SEQ ID NO: 3) (RRILSLFDAYCTGTQITGSGSYRR; HBD Scramble)”, in the assay with hepcidin [2], the “Fpn-GFP internalization activity of 125I-hepcidin after preincubation with peptide” value is reported as “did not affect”. For the same molecule, in the assay with hepcidin [3], the “hepcidin-mediated internalization of Fpn-GFP” value is “did not prevent Fpn-internalization”.

The values above are taken from patent US8530619B2, “Identification of the hepcidin binding site on ferroportin” (University of Utah Research Foundation, priority 2007, dated 2013).
